# Data from patent US9873895B2, “Production of 1,3-dienes by enzymatic conversion of 3-hydroxyalk 4-enoates and/or 3-phosphonoxyalk-4-enoates” (Scientist of Fortune S.A., priority 2011, dated 2018).
# Test: 1,3-butadiene production from 3-phosphonoxypent-4-enoate by using a terpene synthase (headspace GC-FID)
# Type: biochemical
# Conditions: 5 mg/ml enzyme, 50 mM 3-phosphonoxypent-4-enoate, 37° C., 24 hours
# Experimental: The reactions were performed in sealed vials. The total volume was 0.5 ml. Final concentrations were 5 mg/ml enzyme, 50 mM 3-phosphonoxypent-4-enoate, 4 mM DTT, 50 mM MgCl2, 50 mM KCl, 50 mM Tris-HCl buffer pH 7.5. The incubation was carried out at 37° C. for 24 h. The control reactions without enzyme or without substrate were performed in parallel under the same conditions.
# One ml of the gaseous phase of the reaction was collected and analyzed by Gas-Chromatography with Flame Ionization Detector (GC-FID) ((Brucker GC 450) using a RTX-alumina column (Varian), with an isocratic elution at 130° C. and nitrogen as carrier gas at flow rate of 1.5 ml/min. The retention of commercial 1,3-butadiene (Sigma) in these conditions was 7.4 min.
molecule,measurement,value
"isoprene synthase from Pueraria montana var. lobata: purified His-tagged isoprene synthase (terpene synthase), Uniprot Q6EJ97, SEQ ID NO: 30, expressed in E. coli (protein, listed as Pueraria montana, His tag; var. lobata) MCATSSQFTQITEHNSRRSANYQPNLWNFEFLQSLENDLKVEKLEEKATKLEEEVRCMINRVDTQPLSLLELIDDVQRLGLTYKFEKDIIKALENIVLLDENKKNKSDLHATALSFRLLRQHGFEVSQDVFERFKDKEGGFSGELKGDVQGLLSLYEASYLGFEGENLLEEARTFSITHLKNNLKEGINTKVAEQVSHALELPYHQRLHRLEARWFLDKYEPKEPHHQLLLELAKLDFNMVQTLHQKELQDLSRWWTEMGLASKLDFVRDRLMEVYFWALGMAPDPQFGECRKAVTKMFGLVTIIDDVYDVYGTLDELQLFTDAVERWDVNAINTLPDYMKLCFLALYNTVNDTSYSILKEKGHNNLSYLTKSWRELCKAFLQEAKWSNNKIIPAFSKYLENASVSSSGVALLAPSYFSVCQQQEDISDHALRSLTDFHGLVRSSCVIFRLCNDLATSAAELERGETTNSIISYMHENDGTSEEQAREELRKLIDAEWKKMNRERVSDSTLLPKAFMEIAVNMARVSHCTYQYGDGLGRPDYATENRIKLLLIDPFPINQLMYV",ratio of butadiene produced in the presence of isoprene synthase versus in the absence of enzyme (butadiene peak areas),about 5 fold
